Earlier results on one substance are cited in publication PMC9781680.

In the data set the target is GLP1 peptide (Homo sapiens) (UniProt P01275).
UniProt P01275, sequence (P01275 98-127): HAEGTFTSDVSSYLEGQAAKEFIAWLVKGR

As to GLP1R (from UniProt P43220), the equilibrium dissociation constant (Kd) (in general, the equilibrium constant for the complex coming apart) is 0.5 nM.
